Square brackets hold non-standard residues; d marks the D form. Ends that are not written are not given here. pT = C[C@@H](OP(=O)(O)O)[C@H](N)C(=O)O
Columns and labels:
Experiment in all cases: FP
wild-type murine PNKP = wild-type murine PNKP (murine, UniProt Q9JLV6 1-522)
[1] = target: Polynucleotide Kinase-Phosphatase (PNKP), human, wild-type (human, UniProt Q96T60-1 1-521)
P101L PNKP (human) = P101L PNKP (human) (human, UniProt Q96T60-1 1-521, P101L)

Chain of wild-type murine PNKP (Q9JLV6 whole entry): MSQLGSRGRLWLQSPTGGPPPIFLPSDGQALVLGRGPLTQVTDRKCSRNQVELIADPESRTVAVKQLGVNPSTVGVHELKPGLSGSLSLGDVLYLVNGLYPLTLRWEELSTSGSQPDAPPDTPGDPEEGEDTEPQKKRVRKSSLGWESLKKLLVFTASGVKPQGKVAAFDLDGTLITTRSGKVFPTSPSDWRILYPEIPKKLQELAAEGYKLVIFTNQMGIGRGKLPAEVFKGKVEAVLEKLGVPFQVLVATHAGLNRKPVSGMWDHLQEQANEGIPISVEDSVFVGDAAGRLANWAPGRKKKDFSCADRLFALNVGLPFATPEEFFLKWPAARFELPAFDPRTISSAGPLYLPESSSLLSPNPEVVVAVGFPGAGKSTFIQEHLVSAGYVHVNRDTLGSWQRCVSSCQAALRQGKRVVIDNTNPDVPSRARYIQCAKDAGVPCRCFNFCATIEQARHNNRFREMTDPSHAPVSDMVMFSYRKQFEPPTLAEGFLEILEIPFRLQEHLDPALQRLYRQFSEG

- Kd (wild-type murine PNKP): 760 nM
- Kd [1]: 1080 nM
- Kd (P101L PNKP (human)): > 21000 nM
Binder: GGYDES[pT]DEESKK (also: fluorescent dye label, position not given here) [fluorescent-dye labeled XRCC4-based phosphopeptide (GGYDES-pT-DEESKK)]
